Experimental data reported in the Human Domainome abundance scans (Beltran et al. 2025).
± gives the uncertainty stated by the source.

B1: LIM and senescent cell antigen-like-containing domain protein 2, residues 13 to 71; numbered along this chain, Q7Z4I7 (parent)
chain: AVCQRCQARFSPAERIVNSNGELYHEHCFVCAQCFRPFPEGLFYEFEGRKYCEHDFQML

Variants of: B1
Assay: abundance fitness (aPCA) (normalised: wild type 0, dead -1); higher = more abundant; growth selection in yeast, the domain comes from the species named
Details: Homo sapiens

Row | Variant | abundance fitness
1 | AVCQRCQARFSPAERIVNSNGYLYHEHCFVCAQCFRPFPEGLFYEFEGRKYCEHDFQML [E22Y] | -0.08 ± 0.1
2 | AVCQRCQARFSPAERIVNSNGEAYHEHCFVCAQCFRPFPEGLFYEFEGRKYCEHDFQML [L23A] | 0.001 ± 0.052
3 | AVCQRCQARFSPAERIVNSNGECYHEHCFVCAQCFRPFPEGLFYEFEGRKYCEHDFQML [L23C] | -0.185 ± 0.091
4 | AVCQRCQARFSPAERIVNSNGEDYHEHCFVCAQCFRPFPEGLFYEFEGRKYCEHDFQML [L23D] | -0.106 ± 0.12
5 | AVCQRCQARFSPAERIVNSNGEEYHEHCFVCAQCFRPFPEGLFYEFEGRKYCEHDFQML [L23E] | -0.18 ± 0.065
6 | AVCQRCQARFSPAERIVNSNGEFYHEHCFVCAQCFRPFPEGLFYEFEGRKYCEHDFQML [L23F] | -0.082 ± 0.1
7 | AVCQRCQARFSPAERIVNSNGEGYHEHCFVCAQCFRPFPEGLFYEFEGRKYCEHDFQML [L23G] | -0.2 ± 0.052
8 | AVCQRCQARFSPAERIVNSNGEHYHEHCFVCAQCFRPFPEGLFYEFEGRKYCEHDFQML [L23H] | 0.238 ± 0.088
9 | AVCQRCQARFSPAERIVNSNGEIYHEHCFVCAQCFRPFPEGLFYEFEGRKYCEHDFQML [L23I] | 0.078 ± 0.12
10 | AVCQRCQARFSPAERIVNSNGEKYHEHCFVCAQCFRPFPEGLFYEFEGRKYCEHDFQML [L23K] | -0.013 ± 0.055
11 | AVCQRCQARFSPAERIVNSNGEMYHEHCFVCAQCFRPFPEGLFYEFEGRKYCEHDFQML [L23M] | 0.067 ± 0.051
12 | AVCQRCQARFSPAERIVNSNGENYHEHCFVCAQCFRPFPEGLFYEFEGRKYCEHDFQML [L23N] | -0.076 ± 0.11
13 | AVCQRCQARFSPAERIVNSNGEPYHEHCFVCAQCFRPFPEGLFYEFEGRKYCEHDFQML [L23P] | 0.027 ± 0.054
14 | AVCQRCQARFSPAERIVNSNGEQYHEHCFVCAQCFRPFPEGLFYEFEGRKYCEHDFQML [L23Q] | 0.123 ± 0.051
15 | AVCQRCQARFSPAERIVNSNGERYHEHCFVCAQCFRPFPEGLFYEFEGRKYCEHDFQML [L23R] | 0.017 ± 0.037
16 | AVCQRCQARFSPAERIVNSNGESYHEHCFVCAQCFRPFPEGLFYEFEGRKYCEHDFQML [L23S] | -0.003 ± 0.045
17 | AVCQRCQARFSPAERIVNSNGETYHEHCFVCAQCFRPFPEGLFYEFEGRKYCEHDFQML [L23T] | -0.009 ± 0.048
18 | AVCQRCQARFSPAERIVNSNGEWYHEHCFVCAQCFRPFPEGLFYEFEGRKYCEHDFQML [L23W] | -0.168 ± 0.055
19 | AVCQRCQARFSPAERIVNSNGEYYHEHCFVCAQCFRPFPEGLFYEFEGRKYCEHDFQML [L23Y] | 0.186 ± 0.1
20 | AVCQRCQARFSPAERIVNSNGELCHEHCFVCAQCFRPFPEGLFYEFEGRKYCEHDFQML [Y24C] | -0.116 ± 0.055
21 | AVCQRCQARFSPAERIVNSNGELDHEHCFVCAQCFRPFPEGLFYEFEGRKYCEHDFQML [Y24D] | -0.444 ± 0.1
22 | AVCQRCQARFSPAERIVNSNGELEHEHCFVCAQCFRPFPEGLFYEFEGRKYCEHDFQML [Y24E] | -0.303 ± 0.069
23 | AVCQRCQARFSPAERIVNSNGELFHEHCFVCAQCFRPFPEGLFYEFEGRKYCEHDFQML [Y24F] | 0.007 ± 0.057

Row | Variant | abundance fitness
24 | AVCQRCQARFSPAERIVNSNGELGHEHCFVCAQCFRPFPEGLFYEFEGRKYCEHDFQML [Y24G] | -0.238 ± 0.047
25 | AVCQRCQARFSPAERIVNSNGELHHEHCFVCAQCFRPFPEGLFYEFEGRKYCEHDFQML [Y24H] | -0.16 ± 0.078
26 | AVCQRCQARFSPAERIVNSNGELIHEHCFVCAQCFRPFPEGLFYEFEGRKYCEHDFQML [Y24I] | -0.137 ± 0.062
27 | AVCQRCQARFSPAERIVNSNGELKHEHCFVCAQCFRPFPEGLFYEFEGRKYCEHDFQML [Y24K] | -0.257 ± 0.061
28 | AVCQRCQARFSPAERIVNSNGELLHEHCFVCAQCFRPFPEGLFYEFEGRKYCEHDFQML [Y24L] | -0.057 ± 0.037
29 | AVCQRCQARFSPAERIVNSNGELNHEHCFVCAQCFRPFPEGLFYEFEGRKYCEHDFQML [Y24N] | -0.474 ± 0.11
30 | AVCQRCQARFSPAERIVNSNGELQHEHCFVCAQCFRPFPEGLFYEFEGRKYCEHDFQML [Y24Q] | -0.282 ± 0.068
31 | AVCQRCQARFSPAERIVNSNGELTHEHCFVCAQCFRPFPEGLFYEFEGRKYCEHDFQML [Y24T] | -0.232 ± 0.054
32 | AVCQRCQARFSPAERIVNSNGELVHEHCFVCAQCFRPFPEGLFYEFEGRKYCEHDFQML [Y24V] | -0.072 ± 0.054
33 | AVCQRCQARFSPAERIVNSNGELWHEHCFVCAQCFRPFPEGLFYEFEGRKYCEHDFQML [Y24W] | -0.123 ± 0.049
34 | AVCQRCQARFSPAERIVNSNGELYAEHCFVCAQCFRPFPEGLFYEFEGRKYCEHDFQML [H25A] | -0.918 ± 0.14
35 | AVCQRCQARFSPAERIVNSNGELYCEHCFVCAQCFRPFPEGLFYEFEGRKYCEHDFQML [H25C] | 0.048 ± 0.095
36 | AVCQRCQARFSPAERIVNSNGELYDEHCFVCAQCFRPFPEGLFYEFEGRKYCEHDFQML [H25D] | -0.96 ± 0.27
37 | AVCQRCQARFSPAERIVNSNGELYFEHCFVCAQCFRPFPEGLFYEFEGRKYCEHDFQML [H25F] | -0.895 ± 0.16
38 | AVCQRCQARFSPAERIVNSNGELYGEHCFVCAQCFRPFPEGLFYEFEGRKYCEHDFQML [H25G] | -0.832 ± 0.14
39 | AVCQRCQARFSPAERIVNSNGELYIEHCFVCAQCFRPFPEGLFYEFEGRKYCEHDFQML [H25I] | -0.972 ± 0.18
40 | AVCQRCQARFSPAERIVNSNGELYKEHCFVCAQCFRPFPEGLFYEFEGRKYCEHDFQML [H25K] | -0.929 ± 0.15
41 | AVCQRCQARFSPAERIVNSNGELYLEHCFVCAQCFRPFPEGLFYEFEGRKYCEHDFQML [H25L] | -0.668 ± 0.06
42 | AVCQRCQARFSPAERIVNSNGELYMEHCFVCAQCFRPFPEGLFYEFEGRKYCEHDFQML [H25M] | -0.856 ± 0.1
43 | AVCQRCQARFSPAERIVNSNGELYPEHCFVCAQCFRPFPEGLFYEFEGRKYCEHDFQML [H25P] | -0.752 ± 0.1
44 | AVCQRCQARFSPAERIVNSNGELYQEHCFVCAQCFRPFPEGLFYEFEGRKYCEHDFQML [H25Q] | -0.987 ± 0.17
45 | AVCQRCQARFSPAERIVNSNGELYREHCFVCAQCFRPFPEGLFYEFEGRKYCEHDFQML [H25R] | -0.784 ± 0.083
